Measurements: the DeepSol protein solubility set

Test: soluble on expression in E. coli; label from the status in PepcDB or PDB records

Sequence	soluble on expression in E. coli
MAFSIPPLPWGYDGLAAKGISKEQVTFHYDKHHMGYVTKLNAAANSNPALAAKSVEEIIRTEKGPIFNLAAQIFNHNFYWESMSPNGGGEPSGKLAEAIRASFGSFAKFKEEFTNAAVGHFGSGWAWLVQDTTTKKLKVFQTHDAGCPLTEADLKPILTCDVWEHAYYIDYKNDRPAYVQTFWNVVNWDHAENQFTR	soluble
MGSDKIHHHHHHMNRKLIQIDQLKNQLTQYRPLSESEVKRLREEFIIESSYNSNAIEGNTITLRETVLILKEGMTIAEKPLREHLDIIGFKDAFNYIYELVANNEPLSERTIKDIHSLVLMNNAEGRGVYRKIPVRILGAENEPTAPYLIAEEMQSLIEKYQQKLTALHPIEAISWLHLAFESIHPFIDGNGRTGRLLINFELLKHGYLPVDIKFTHRANYYQCFDDFHKNQQDISRLVELISRYELTELERYLAILEQRT	not soluble
MPRFMRTQTKLRTIIRSNLMLNSSSMEISRSLTSWQKGARSIIHRALQYLEGNLTVIEHFPDQTQTTHEQFGQDKPDAIHAVIEIKHPDFYSRVLKGGSIAAAEAYMEGWWESPNLTALMQLMAANLGTLDKLESQSSPVTQWLNRFTHWLKRNTIDQAKDNIHQHYDLGNELYQLFLDEEMLYSSALFTQPELSLEQAQQAKMQRLCEQLQLKPTDHVLEIGTGWGAMAIYMAQHYGCKVTTTTISEEQYAYAQQKITALGLNNQITLLKQDYRLLSGQYDKLVSIEMIEAVGKAYLPTFLSQCYALLKPRGKMAIQAITIADQRYESYSNNVDFIQKYIFPGGFLPSISVLTELATKRTGLVLRNLHDIGIDYALTLQHWRDRFEQQLPKVRDLGYDERFIRMWRYYFCYCEGGFLARSISTVHMTFERD	not soluble
MDNEKLIREARRMEDVQQLKMQIPKPVDKKPRPPPSENNLKLISCEETCMDETLKNSSKPRMIYNKQLGRAESIDFDVPSLSYESSTFKKSNNSSGGALVLDNHYLINNDDGTVKKLPMKVYVKQRLEDGSLDVQLVFFDENSQKVMDISMLVNGKKIRNVQFCGKDGKLVN	not soluble
MQLQLICEDPSQQSHLDELAARWQLSHTDESDFALVLTAERLELRKVDEPKLGAIFVDLIGGAVGHRRKFGGGKGQAIAKAAGLNKGATPTVLDGTAGLGRDAFVLASLGCKVQMVERHPVVAALLDDGLARAKQDPEIGTWVSERMSLIHASSHDALDQLAQDREFVKPDVVYLDPMYPHPENKKKSALVKKEMRVFQSLVGADLDADGLLEPALALATKRVVVKRPDYANWLNEQKPSMAIETKKNRFDVYVKASMALEHHHHHH	soluble
MGSDKIHHHHHHMTIRYTFGGDEFIFVEISESMSLDAFFKGTAITRELRRRNVPGVTEICPANASYQVRYDPDVIEPDTLLALLKTIEAEVGEAALNIDTRIVEVPVLYNDPWTHETLMRFRERHQAPESTDLEYAARVNGKRDIDEFIAAHAGSPWFVSMVGFVAGLPFMYQMVERERQLQVPKYLRPRTDTPKLTVGHGGCFGCIYSVRGAGGYQMFGVTPAPIFDPAQRLDYLRDFMVFFRPGDIVKFKPIDRAEYDAAVAAVEAGTFTLRVKPVRFALEAFLRDPHAYNRSLVEVLDAN	not soluble
MLGHNKISVIIPAYNEERRIGNVLKGIPDFVDEVIVVDDGSSDGTSKVAMELGATVIRLNKNSGKGAAMREGLKISTGDIIVFMDADGQHNPKEIYRLVKPIVEGRADLVIGRRIITRGKRPMSRKISNFITTRLITLKTRKKILDTQSGFRAIRREFVPVIESDRYEVETEVLIKAIKKGARILEVPISTRYDVETGHFKMIDIFRFLFALIKYLEHHHHHH	not soluble
MGSDKIHHHHHHMKILWITSVYPSSMKPGEGVFHETQVQELQKLGLDITVICPRPFHSAPVRMLKKTYRKKDVRPEYEIRKGIPVYRPFYRAVPGQLKWAQPHRRIASAVLKTMKQRDLYPDLIHAHFAMPSGGAAAVVSESAQIPYVLTLHGSDVNVYPHYSKGAFKAFKRAVGSASVVLAVSHKLQEEAKKLSGFDSSVLPIGIQLSRFQGNEETKEEIRKRLGLPLDQRLAVYVGRLVREKGIFELSEAIESLQDSPKAVFVGDGPAKSTLTQKGHIVTGQVPNHQVRDYLLAADLFVLPSYSEGMPTVVIEALALRVPVICTDVGGVSSLFGKHQHLLIKPKSAQALAEAITRYEHEQIWKPEVADDLYETVQAQFDAGKNAKALHHQYQTVTKTSV	not soluble
TPDADKKGAVFALDQEPEAQAAVVALDPLSGAVKAMVGGYDFRKSQFNRALQAKRNPGSAFKPLIYAAALDKGITPATIFDDSPVEYESGKEKAWKPKNYDNIYRGNVTMREALTNSINVVSVKILEQIGVDYAIEYAKKLGITSPLSANLTLALGSSSLTPLELTSAYAVFASGGYRTTPYFVTRVEDAEGRTLEETAPPVIPRFSVMTSAESSPLEASPAPPATAGDSASTAVPVIAPETAYIMTNLMESVVQSGTGQRARAVGRPVAGKTGTTNDMKDAWFVGYIPQLVAGVWVGYDQERSLGAGGSGGQAAAPIWTEFMRRAVAGIPSRDF	not soluble
MVVPGKNSTISPDYFTASQTSPLDMMKFPSPGSSKRYDNGGGIGLGIVAALEKSSIGINPVCHTGAGSKGFDLARYSKRFQFAAGIDLSDSEEYTCVTTRDGLTKVYYKEEEFEFGHNLLNGDQRWRKPIEIAEESPAKERRVLRDCPDFLTSCCLCKKKLQGKDIYMYKGDEGFCSKECRSLKIMEDSLKEQHKLTSVEVLTGEEIASPGIFLI	soluble
MGSDKIHHHHHHMSKIFAQDTDCSFLIEQAVKAPSGHNTQPWTFRIKETGIDILPDFTKTLPVVDPDNRELFVSLGCATENLCVAAAHKGYETMVSIAENGTIHIELTKQDSDTPSPLFPHISVRQTNRSVYDGNTIPVNDIVALGEKSDMEPCVGAHFFKNGTREFDAISEMVCEGNSIQMRDKKFKEELQQWMRYNKKHQDATRDGLSYAVFGAPNLSRFIAKAIITRLINEKSQNRNDRRKIASSSHFVLFTTSNNTVVQWIKLGRALEHILLKATGMGISHAYMNQPNEVQGLSGKMAEILGIEDEYPTVLIRLGYGSKMPYSLRRSVQSCIIPNSFD	not soluble
MGSDKIHHHHHHMLGSNMLLTNRIDLRSYHTESCSHTHDFAQLVLPVSGSMELEVGHYSGVVNDDIGVYIAPNEQHCFAGSQKNLFLVIDATTQNSLRDEAFESNILNLTASTKKLIQFTHHYLAHNERDFFTDSLINQLLFHFAASSFSPEPDLVVIRAKQWIDLYFADSVNVNRVAKHCYLSISQLQRRFKQMLGCGIAEYWRMKKLLHAKKLLSQKNCSIEAIAFEVGYENLPAFSRRFSKVFGESPSQWRSKALTAKKMREIDK	not soluble
MGDGISETIDAFHRGRFHIIQPKGRGHRAGMDAMLLASLVADDRACRIADLGAGAGAAGMAVAARLEKAEVTLYERSQEMAEFARRSLELPDNAAFSARIEVLEADVTLRAKARVEAGLPDEHFHHVIMNPPYNDAGDRRTPDALKAEAHAMTEGLFEDWIRTASAIMVSGGQLSLISRPQSVAEIIAACGSRFGGLEITLIHPRPGEDAVRMLVTAIKGSRARLTFRAPLIMHET	soluble
MIKLERETKPDYLSDEKVFELTESFKATKKSVWNHDHIKIPLLRSSHSKCAYCECPLTSASNYMEVEHFEDKNHYPEKVVLWENLLPSCKKCNGAKGQHDVIGDPIINPYVEDPKNHLSMRLYRFRAKSDKGQSTIEVTQLNSSDRSVFCRYEIGEKISEMIDLGFERWNEYLVRNNTRSKNKLVNLVQGLLNECQPTSSYSASTATNLLTDPKFIELMSLMREADIVSEELDDLILKASTLVLDYVLEHHHHHH	not soluble
MGSDKIHHHHHHMVDQSQLRQWGCKVIDIEKSALDNLYQYVDSAEFAQACELILNCSGKVIVMGMGKSGHIGNKISATLASTGTPAFFVHPGEASHGDLGVLSDNDIILAISNSGESSEILALMPVIQRKAIPVIAMTGKPESTMARLAKIHLCIEVPEEACPLGLAPTSSTTATLVMGDAMAIALLQAKGFTRDDFAMSHPGGALGRKLLLKVSNVMHCGDDLPLVKHDICITDALYEISKKGLGMTAIIDEQNKLVGIFTDGDLRRVIDAQVNLRTTPIADVMTRNCVTITENVLAAQALQVMDSRNINGLIVIDKENHPVGALNMLDMVKAGVI	not soluble
MSLATIKDIAKEVGCSISTVSRVLNNDPTLSVGDETRSRIFEVAEEIGYRKKTLKTLVKNIAFLYWLTDNEELEDVYFQTMRVEIEKKARENNIELTTYKLEGGIEKIPLDIDGFIAVGSFMNRELEYLRELTPHGVFIDSTPDPAHYDSVRPDLAQITRQAVEVLVEQGHEKIGFIGGTYHNLDTDAEEMDGRERAFRQTMEERDLLREDFIFCRRGFSVDNGHYLMNQAVEQLGEELPTAFYVAADPIAVGCLQVLNEQQIEIPKRVSLISVNDTSISKYVSPPLTTFHIDLEEICQNAIQLLLERVLKKRNIVKTVYIGAELITRKSTEGHHHHHH	soluble
MEGQRWLPLEANPEVTNQFLKQLGLHPNWQFVDVYGMDPELLSMVPRPVCAVLLLFPITEKYEVFRTEEEEKIKSQGQDVTSSVYFMKQTISNACGTIGLIHAIANNKDKMHFESGSTLKKFLEESVSMSPEERARYLENYDAIRVTHETSAHEGQTEAPSIDEKVDLHFIALVHVDGHLYELDGRKPFPINHGETSDETLLEDAIEVCKKFMERDPDELRFNAIALSAA	soluble
MGSDKIHHHHHHMTPAAVGQLVRTLEDWLGFPLFHRQTNGKNRLVATELAESVLPDIRAGFDKLTLALEKLKQDSLSGVLNIAVSPAFAEKWLLPRIDHFQKQYPDIDIRLDINLKTVDFLEQKVDVGVRYGQGQWQGLEAVKLMDEEVYPVCSPAFLNEHSFLLTPNDLKNITLIHDLSMEKHQQFPGWQSWLKSVGLNDINISRGMQINSSSAVLQAAMEGHGVALARSVMVQKDIQTGRLIRLFPQINFSSPFSYYLVYRPQYANLPKVKICLDWFFEEIHRI	not soluble
MQNGAMKAWLDSSYLAGANQSYIEQLYEDFLTDPGSVDDSWRSIFQQLPTTGVKPDQLHSQTREYFRRLAKDSTRYNSSINDPDIDAKQVKVLQLINAFRFRGHQHANLDPLGLWKQESVPDLDPSYHNLTEADFQNTFNVGSFAIGKETMKLADLYAALKQTYCGSVGAEYMHITNTEEKRWIQQRIESVVGKPTFSDAEKRRFLSELTAAEGLERYLGAKFPGAKRFSLEGGDSLVTMLKEMIRHAGKNGTREVVLGMAHRGRLNVLINVLGKKPEDLFDEFAGKHKEHLGTGDVKYHQGFSSDVETEGGLVHLALAFNPSHLEIVSPVVIGSVRARRDRLDEARSNMVLPITIHGDAAITGQGVVQETLNMSQARGYEVGGTVRIVINNQIGFTTSNPLDARSTQYCTDIAKMVQAPIFHVNADDPEAVAFVTRLALDFRNTFKRDVMIDLVCYRRHGHNEADEPSATQPVMYQKIKKHPTPRKIYADKLIEQNIASLEDATEMVNLYRDALDHGDCVVEEWRPMNLQSFTWSPYLNHEWDEAYPSKVEMKRLQELARRISSAPEAIEMQSRVAKIYSDRALMASGEKPFDWGGAETLAYATLVDEGIPIRLSGEDAGRGTFFHRHAVIHNQKNGSVYVPLSNIHSGQGDFQVWDSVLSEEAVLAFEYGYATAEPRTLTIWEAQFGDFANGAQVVIDQFISSGEQKWGRMCGLVMLLPHGYEGQGPEHSSARLERYLQLCAEQNMQVCIPSTPAQVYHMIRRQALRGMRRPLIVMSPKSLLRHPLATSSLDELANGSFLPAIGEIDELDPKGIKRVVMCSGKVYYDLLEQRRKNGQTDVAIVRIEQLYPFPHQAVQSVLEQYAHVHDFVWCQEEPLNQGAWYCSQHNFREVIPFGASLRYAGRPASASPAVGYLSVHQKQQQALVNDALNVE	not soluble
